This is an account of results in paper PMC2897852 (PLoS ONE, 2010).

The labels stand for the following.
B2: His-ClpX (M. tuberculosis ClpX, pRD21) (natural protein)
chain: not shown
notes: also called his-clpXTB; recombinant His-ClpX fusion protein

Series [1] concerns the target B2. Nature of the series: ELISA. The conditions noted are these: both partners purified. In general terms: In an ELISA, binding on a coated surface is turned into a signal by an enzyme label.
Series [2] concerns the molecule itself. Put plainly: SEC; purified ClpX on a Superdex 200 10/300 GL column; data not shown.

B1: purified FtsZ (M. tuberculosis) as used in the solid-phase binding and polymerization assays (natural protein)
chain: MTPPHNYLAVIKVVGIGGGGVNAVNRMIEQGLKGVEFIAINTDAQALLMSDADVKLDVGRDSTRGLGAGADPEVGRKAAEDAKDEIEELLRGADMVFVTAGEGGGTGTGGAPVVASIARKLGALTVGVVTRPFSFEGKRRSNQAENGIAALRESCDTLIVIPNDRLLQMGDAAVSLMDAFRSADEVLLNGVQGITDLITTPGLINVDFADVKGIMSGAGTALMGIGSARGEGRSLKAAEIAINSPLLEASMEGAQGVLMSIAGGSDLGLFEINEAASLVQDAAHPDANIIFGTVIDDSLGDEVRVTVIAAGFDVSGPGRKPVMGETGGAHRIESAKAGKLTSTLFEPVDAVSVPLHTNGATLSIGGDDDDVDVPPFMRR
notes: also called FtsZTB
As to B1, the binding result in series [1] was “binds”.

The stoichiometry N is the number of molecules, sites or subunits per partner or assembly. For B2, in series [2], the “stoichiometry N” value was 6.
